“Also recorded” adds a separate entry of the source.
Assays:
[1] = molecular target: T1, GDF11 (Homo sapiens, UniProt O95390); test: A-204 reporter gene assay, pGL3(CAGA)12 luciferase; format: cell-based; conditions: A-204 reporter gene assay
T1 sequence (O95390 299-407): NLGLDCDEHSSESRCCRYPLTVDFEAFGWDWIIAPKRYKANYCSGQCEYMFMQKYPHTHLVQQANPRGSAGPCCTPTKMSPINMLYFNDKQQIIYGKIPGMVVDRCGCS
Outline: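 Human rhabdomyosarcoma A-204 cells transfected with SMAD-responsive pGL3(CAGA)12 luciferase reporter (optionally with pRLCMV). Ligand in medium + 0.1% BSA, preincubated ~1 h with Fc-fusion inhibitor before addition to cells; after ~6 h cells lysed and luciferase activity measured.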

[2] = molecular target: T2, BMP10 (Homo sapiens, UniProt O95393); test: A-204 Reporter Gene Assay (Example 13); format: cell-based
T2 sequence (O95393 317-424): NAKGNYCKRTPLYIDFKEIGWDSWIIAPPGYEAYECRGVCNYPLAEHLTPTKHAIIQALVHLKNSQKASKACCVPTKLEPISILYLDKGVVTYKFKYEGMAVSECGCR
Source text: In addition, an A-204 Reporter Gene Assay was used to evaluate the effects of ALK4-Fc:ActRIIB-Fc heterodimer and ActRIIB-Fc:ActRIIB-Fc homodimer on signaling by activin A, activin B, GDF11, GDF8, BMP10, and BMP9. Cell line: Human Rhabdomyosarcoma (derived from muscle). Reporter vector: pGL3(CAGA)12 (as described in Dennler et al, 1998, EMBO 17: 3091-3100). The CAGA12 motif is present in TGFβ responsive genes (PAI-1 gene), so this vector is of general use for factors signaling through Smads. An exemplary A-204 Reporter Gene Assay is outlined below. • Day 1: Split A-204 cells into 48-well plate. • Day 2: A-204 cells transfected with 10 ug pGL3(CAGA)12 or pGL3(CAGA)12(10 ug)+pRLCMV (1 ug) and Fugene. • Day 3: Add factors (diluted into medium+0.1% BSA). Inhibitors need to be pre-incubated with Factors for about one hr before adding to cells. About six hrs later, cells are rinsed with PBS and then lysed.
Following the above steps, a Luciferase assay was performed.

[3] = molecular target: T1, GDF11; test: Biacore ligand binding profile, ALK4-Fc:ActRIIB-Fc heterodimer vs homodimers, anti-Fc capture (Example 13, Table 13)
Experimental: (§1) A Biacore™-based binding assay was used to compare ligand binding selectivity of the ALK4-Fc:ActRIIB-Fc heterodimeric complex described above with that of ActRIIB-Fc and ALK4-Fc homodimer complexes. The ALK4-Fc:ActRIeB-Fc heterodimer, […], and ALK4-Fc homodimer were independently captured onto the system using an anti-Fc antibody. Ligands were injected and allowed to flow over the captured receptor protein. Results are summarized in Table 13 below, in which ligand off-rates (kd) most indicative of effective polypeptides are denoted in bold.

[4] = molecular target: T3, GDF8 (Homo sapiens, UniProt O14793); test: as above
T3 sequence (O14793 267-375): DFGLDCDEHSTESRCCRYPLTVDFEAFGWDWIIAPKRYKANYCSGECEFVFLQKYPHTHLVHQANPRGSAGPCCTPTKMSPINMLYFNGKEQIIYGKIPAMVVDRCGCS
Experimental: as §1

[5] = molecular target: T4, activin A (Homo sapiens, UniProt P08476); test: as above
T4 sequence (P08476 311-426): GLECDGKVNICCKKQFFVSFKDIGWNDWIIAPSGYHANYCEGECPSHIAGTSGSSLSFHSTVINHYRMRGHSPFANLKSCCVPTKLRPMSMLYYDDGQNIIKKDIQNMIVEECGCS
Experimental: as §1

[6] = molecular target: T5, activin B (Homo sapiens, UniProt P09529); test: as above
T5 sequence (P09529 293-407): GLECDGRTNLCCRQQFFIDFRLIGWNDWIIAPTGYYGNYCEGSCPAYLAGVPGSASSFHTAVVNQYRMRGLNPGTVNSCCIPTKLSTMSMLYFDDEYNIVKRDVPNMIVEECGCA
Experimental: as §1

[7] = molecular target: T6, GDF3 (Homo sapiens, UniProt Q9NR23); test: as above
T6 sequence (Q9NR23 251-364): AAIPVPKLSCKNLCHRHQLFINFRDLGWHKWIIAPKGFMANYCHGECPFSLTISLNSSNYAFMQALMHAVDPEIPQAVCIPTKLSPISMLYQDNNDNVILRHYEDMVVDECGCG
Experimental: as §1

[8] = molecular target: T7, BMP9 (Homo sapiens, UniProt Q9UK05); test: as above
T7 sequence (Q9UK05 320-429): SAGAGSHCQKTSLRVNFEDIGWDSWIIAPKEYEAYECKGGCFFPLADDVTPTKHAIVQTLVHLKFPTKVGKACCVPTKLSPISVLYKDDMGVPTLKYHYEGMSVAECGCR
Experimental: as §1

[9] = molecular target: T2, BMP10; test: as above
Experimental: as §1

B1: ALK4-Fc:ActRIIB-Fc heterodimer: heteromeric complex of extracellular domains of human ActRIIB and human ALK4, each separately fused to an Fc domain with a linker (protein)
chain 1: GRGEAETRECIYYNANWELERTNQSGLERCEGEQDKRLHCYASWRNSSGTIELVKKGCWLDDFNCYDRQECVATEENPQVYFCCCEGNFCNERFTHLPEAGGPEVTYEPPPTAPTGGGTHTCPPCPAPELLGGPSVFLFPPKPKDTLMISRTPEVTCVVVDVSHEDPEVKFNWYVDGVEVHNAKTKPREEQYNSTYRVVSVLTVLHQDWLNGKEYKCKVSNKALPAPIEKTISKAKGQPREPQVYTLPPSRKEMTKNQVSLTCLVKGFYPSDIAVEWESNGQPENNYKTTPPVLKSDGSFFLYSKLTVDKSRWQQGNVFSCSVMHEALHNHYTQKSLSLSPGK
chain 2: SGPRGVQALLCACTSCLQANYTCETDGACMVSIFNLDGMEHHVRTCIPKVELVPAGKPFYCLSSEDLRNTHCCYTDYCNRIDLRVPSGHLKEPEHPSMWGPVETGGGTHTCPPCPAPELLGGPSVFLFPPKPKDTLMISRTPEVTCVVVDVSHEDPEVKFNWYVDGVEVHNAKTKPREEQYNSTYRVVSVLTVLHQDWLNGKEYKCKVSNKALPAPIEKTISKAKGQPREPQVYTLPPSREEMTKNQVSLTCLVKGFYPSDIAVEWESNGQPENNYDTTPPVLDSDGSFFLYSDLTVDKSRWQQGNVFSCSVMHEALHNHYTQKSLSLSPG
inhibition of GDF11 signaling [1]: potent inhibitors | inhibition of BMP10 signaling [2]: significantly reduced | GDF11 binding ([3]; Example 13): strong binding | ka ([3]; ligand GDF11, Table 13): 3.8e+07 M⁻¹ s⁻¹ | kd ([3]; ligand GDF11, Table 13): 0.00011 s⁻¹ | GDF8 binding ([4]; Example 13): strong binding | ka ([4]; ligand GDF8, Table 13): 390000 M⁻¹ s⁻¹ | kd ([4]; ligand GDF8, Table 13): 0.00021 s⁻¹ | activin A binding ([5]; Example 13): strong binding | ka ([5]; ligand Activin A, Table 13): 1.3e+07 M⁻¹ s⁻¹ | kd ([5]; ligand Activin A, Table 13): 0.00015 s⁻¹ | activin B binding ([6]; Example 13): enhanced binding to activin B compared with either homodimer | ka ([6]; ligand Activin B, Table 13): 7.1e+06 M⁻¹ s⁻¹ | kd ([6]; ligand Activin B, Table 13): 4e-05 s⁻¹ | GDF3 binding ([7]; Example 13): substantially reduced binding | ka ([7]; ligand GDF3, Table 13): 3.4e+06 M⁻¹ s⁻¹ | kd ([7]; ligand GDF3, Table 13): 0.017 s⁻¹ | BMP9 binding ([8]; Example 13): substantially reduced binding; also recorded: low or no observable affinity | kd ([8]; ligand BMP9, Table 13): Transient* | BMP10 binding ([9]; Example 13): substantially reduced binding | ka ([9]; ligand BMP10, Table 13): 5.6e+07 M⁻¹ s⁻¹ | kd ([9]; ligand BMP10, Table 13): 0.0041 s⁻¹
